Measured values from the Immune Epitope Database (IEDB).
pIC50, pKd: −log10 of the molar value.

Assays:
HLA-A*01:01 [1] = assay: IEDB peptide-MHC binding, purified MHC/direct/fluorescence; filed as Kd, often an IC50 or EC50 that approximates it; ≥ and ≤ were set here for values at or beyond the usual limits of such assays
HLA-A*31:01 = assay: as above; details: source organism: Mycobacterium tuberculosis
HLA-B*27:05 = assay: as above
HLA-B*18:01 = assay: as above
HLA-A*02:01 [2] = assay: as above
HLA-B*48:01 = assay: as above
HLA-B*46:01 = assay: as above
HLA-A*69:01 = assay: as above
HLA-A*03:01 = assay: as above; details: source organism: Mycobacterium tuberculosis
HLA-B*38:01 = assay: as above
HLA-B*39:01 = assay: as above
HLA-B*08:01 [3] = assay: as above
HLA-B*15:17 [4] = assay: as above; details: source organism: Mycobacterium tuberculosis
HLA-A*11:01 = assay: as above; details: source organism: Mycobacterium tuberculosis
HLA-B*40:01 = assay: as above
HLA-B*58:01 = assay: as above
HLA-B*15:01 [5] = assay: as above
HLA-B*51:01 = assay: as above; details: source organism: Mycobacterium tuberculosis
HLA-B*57:01 = assay: as above
HLA-A*24:02 [6] = assay: IEDB peptide-MHC binding, purified MHC/competitive/fluorescence; filed as Kd, often an IC50 or EC50 that approximates it; ≥ and ≤ were set here for values at or beyond the usual limits of such assays
HLA-C*04:01 = assay: IEDB peptide-MHC binding, purified MHC/direct/fluorescence; filed as Kd, often an IC50 or EC50 that approximates it; ≥ and ≤ were set here for values at or beyond the usual limits of such assays
HLA-B*08:01 [7] = assay: IEDB peptide-MHC binding, purified MHC/competitive/fluorescence; ≥ and ≤ were set here for values at or beyond the usual limits of such assays
HLA-A*24:02 [8] = assay: as above
HLA-B*15:01 [9] = assay: as above; details: source organism: Zaire ebolavirus
HLA-A*01:01 [10] = assay: IEDB peptide-MHC binding, purified MHC/competitive/fluorescence; filed as Kd, often an IC50 or EC50 that approximates it; ≥ and ≤ were set here for values at or beyond the usual limits of such assays; details: source organism: Orthomarburgvirus marburgense
HLA-A*02:01 [11] = assay: as above; details: source organism: Orthomarburgvirus marburgense
HLA-B*35:01 = assay: as above; details: source organism: Orthomarburgvirus marburgense
HLA-A*02:06 = assay: as above; details: source organism: Orthomarburgvirus marburgense
HLA-A*68:02 [12] = assay: as above; details: source organism: Orthomarburgvirus marburgense
HLA-B*15:17 [13] = assay: as above; details: source organism: Orthomarburgvirus marburgense
HLA-A*26:01 = assay: IEDB peptide-MHC binding, purified MHC/direct/fluorescence; filed as Kd, often an IC50 or EC50 that approximates it; ≥ and ≤ were set here for values at or beyond the usual limits of such assays
HLA-C*03:03 = assay: as above; details: source organism: Orthomarburgvirus marburgense
HLA-B*07:02 = assay: as above; details: source organism: Marburg virus - Musoke, Kenya, 1980
HLA-B*08:01 [14] = assay: IEDB peptide-MHC binding, purified MHC/competitive/fluorescence; filed as Kd, often an IC50 or EC50 that approximates it; ≥ and ≤ were set here for values at or beyond the usual limits of such assays; details: source organism: Mycobacterium tuberculosis variant bovis BCG str. Pasteur 1173P2
HLA-A*02:01 [15] = assay: IEDB peptide-MHC binding, purified MHC/competitive/fluorescence; ≥ and ≤ were set here for values at or beyond the usual limits of such assays; details: source organism: Variola virus
HLA-A*26:02 = assay: IEDB peptide-MHC binding, purified MHC/competitive/fluorescence; filed as Kd, often an IC50 or EC50 that approximates it; ≥ and ≤ were set here for values at or beyond the usual limits of such assays; details: source organism: Orthomarburgvirus marburgense
HLA-B*15:01 [16] = assay: as above; details: source organism: Orthomarburgvirus marburgense
HLA-B*08:02 = assay: IEDB peptide-MHC binding, purified MHC/direct/fluorescence; filed as Kd, often an IC50 or EC50 that approximates it; ≥ and ≤ were set here for values at or beyond the usual limits of such assays; details: source organism: Ravn virus - Ravn, Kenya, 1987
HLA-A*68:02 [17] = assay: as above; details: source organism: Marburg virus - Musoke, Kenya, 1980
HLA-B*15:09 = assay: as above; details: source organism: Ravn virus - Ravn, Kenya, 1987
[18] = source organism: Mycobacterium tuberculosis
[19] = source organism: Mycobacterium tuberculosis str. Haarlem
[20] = source organism: Salmonella enterica subsp. enterica serovar Typhi str. CT18
[21] = source organism: Zaire ebolavirus
[22] = source organism: Vaccinia virus Copenhagen
[23] = source organism: Rickettsia typhi str. Wilmington
[24] = source organism: Marburg virus - Musoke, Kenya, 1980
[25] = source organism: Ravn virus - Ravn, Kenya, 1987

**Q.** With APAKKAAPA as the sequence, how does the pKd (HLA-A*01:01 [1]; [18]) read?
**A.** ≤ 4.70

**Q.** And the pKd (HLA-A*31:01)?
**A.** ≤ 4.70

**Q.** And the pKd (HLA-B*27:05; [18])?
**A.** ≤ 4.70

**Q.** And the pKd (HLA-B*18:01; [18])?
**A.** ≤ 4.70

**Q.** What about the pKd (HLA-A*02:01 [2]; [18]) of the same sequence?
**A.** ≤ 4.70

**Q.** What about the pKd (HLA-B*48:01; [18]) of the same sequence?
**A.** ≤ 4.70

**Q.** What about the pKd (HLA-B*46:01; [18]) of the same sequence?
**A.** ≤ 4.70

**Q.** And the pKd (HLA-A*69:01; [18])?
**A.** ≤ 4.70

**Q.** What about the pKd (HLA-A*03:01) of the same sequence?
**A.** ≤ 4.70

**Q.** And the pKd (HLA-B*38:01; [19])?
**A.** ≤ 4.70

**Q.** And the pKd (HLA-B*39:01; [19])?
**A.** ≤ 4.70

**Q.** What about the pKd (HLA-B*08:01 [3]; [19]) of the same sequence?
**A.** 7.11

**Q.** What about the pKd (HLA-B*15:17 [4]) of the same sequence?
**A.** ≤ 4.70

**Q.** What about the pKd (HLA-A*11:01) of the same sequence?
**A.** ≤ 4.70

**Q.** And the pKd (HLA-B*40:01; [18])?
**A.** ≤ 4.70

**Q.** What about the pKd (HLA-B*58:01; [18]) of the same sequence?
**A.** ≤ 4.70

**Q.** And the pKd (HLA-B*15:01 [5]; [18])?
**A.** ≤ 4.70

**Q.** And the pKd (HLA-B*51:01)?
**A.** ≤ 4.70

**Q.** What about the pKd (HLA-B*57:01; [18]) of the same sequence?
**A.** ≤ 4.70

**Q.** IYASRPLDF was tested. Which pKd (HLA-A*24:02 [6]; [20]) did it give?
**A.** ≥ 10.00

**Q.** What about the pKd (HLA-C*04:01; [20]) of the same sequence?
**A.** ≤ 4.70

**Q.** With DRFKRTSFF as the sequence, how does the pIC50 (HLA-B*08:01 [7]; [21]) read?
**A.** 5.27

**Q.** What about the pIC50 (HLA-A*24:02 [8]; [21]) of the same sequence?
**A.** 5.91

**Q.** And the pIC50 (HLA-B*15:01 [9])?
**A.** ≤ 3.74

**Q.** GYFLKIKVT was tested. Which pIC50 (HLA-B*08:01 [7]; [22]) did it give?
**A.** ≤ 3.64

**Q.** And the pIC50 (HLA-A*24:02 [8]; [22])?
**A.** ≤ 3.67

**Q.** How did the pKd (HLA-A*24:02 [6]; source organism: Campylobacter jejuni subsp. jejuni NCTC 11168 = ATCC 700819) turn out when VMPLLVWLF was run?
**A.** 8.54

**Q.** With IYYWTAWLI as the sequence, how does the pKd (HLA-A*24:02 [6]; [23]) read?
**A.** 8.77

**Q.** And the pKd (HLA-C*04:01; [23])?
**A.** ≤ 4.70

**Q.** What does the source list for ISDPLTSGL?
**A.** pKd (HLA-A*01:01 [10]): 5.99; pKd (HLA-A*02:01 [11]): 7.17; pKd (HLA-B*35:01): ≤ 4.70; pKd (HLA-A*02:06): 7.69; pKd (HLA-A*68:02 [12]): ≤ 4.70; pKd (HLA-B*15:17 [13]): 7.88; pKd (HLA-B*27:05; [24]): ≤ 4.70; pKd (HLA-B*18:01; [24]): ≤ 4.70; pKd (HLA-B*48:01; [24]): ≤ 4.70; pKd (HLA-B*46:01; [24]): ≤ 4.70; pKd (HLA-A*26:01; [25]): ≤ 4.70; pKd (HLA-B*38:01; [25]): 5.30; pKd (HLA-C*03:03): ≤ 4.70; pKd (HLA-B*39:01; [24]): ≤ 4.70; pKd (HLA-B*08:01 [3]; [25]): ≤ 4.70; pKd (HLA-B*40:01; [24]): ≤ 4.70; pKd (HLA-B*58:01; [24]): 6.38; pKd (HLA-B*07:02): ≤ 4.70; pKd (HLA-B*15:01 [5]; [24]): ≤ 4.70; pKd (HLA-B*57:01; [24]): ≤ 4.70

**Q.** Which results are given for SPRSRNRSF?
**A.** pKd (HLA-B*08:01 [14]): 6.91; pKd (HLA-A*01:01 [1]; [18]): ≤ 4.70; pKd (HLA-A*31:01): ≤ 4.70; pKd (HLA-B*27:05; [18]): ≤ 4.70; pKd (HLA-B*18:01; [18]): ≤ 4.70; pKd (HLA-A*02:01 [2]; [18]): ≤ 4.70; pKd (HLA-B*48:01; [18]): ≤ 4.70; pKd (HLA-B*46:01; [18]): ≤ 4.70; pKd (HLA-A*69:01; [18]): ≤ 4.70; pKd (HLA-A*03:01): ≤ 4.70; pKd (HLA-A*26:01; [19]): ≤ 4.70; pKd (HLA-B*38:01; [19]): ≤ 4.70; pKd (HLA-B*39:01; [19]): ≤ 4.70; pKd (HLA-B*15:17 [4]): ≤ 4.70; pKd (HLA-A*11:01): ≤ 4.70; pKd (HLA-B*40:01; [18]): ≤ 4.70; pKd (HLA-B*58:01; [18]): ≤ 4.70; pKd (HLA-B*15:01 [5]; [18]): ≤ 4.70; pKd (HLA-B*51:01): ≤ 4.70; pKd (HLA-B*57:01; [18]): ≤ 4.70

**Q.** What does the source list for LSLPRIALV?
**A.** pIC50 (HLA-A*02:01 [15]): 6.21; pIC50 (HLA-B*08:01 [7]; source organism: Variola virus): ≤ 3.55

**Q.** How did the pKd (HLA-A*26:02) turn out when IHLDKGGQF was run?
**A.** ≤ 4.70

**Q.** And the pKd (HLA-B*35:01)?
**A.** ≤ 4.70

**Q.** What about the pKd (HLA-B*15:17 [13]) of the same sequence?
**A.** ≤ 4.70

**Q.** And the pKd (HLA-B*15:01 [16])?
**A.** ≤ 4.70

**Q.** And the pKd (HLA-A*01:01 [1]; [24])?
**A.** ≤ 4.70

**Q.** And the pKd (HLA-B*27:05; [24])?
**A.** ≤ 4.70

**Q.** And the pKd (HLA-B*18:01; [24])?
**A.** ≤ 4.70

**Q.** And the pKd (HLA-A*02:01 [2]; [24])?
**A.** ≤ 4.70

**Q.** What about the pKd (HLA-B*48:01; [24]) of the same sequence?
**A.** ≤ 4.70

**Q.** What about the pKd (HLA-B*46:01; [24]) of the same sequence?
**A.** ≤ 4.70

**Q.** And the pKd (HLA-A*69:01; [24])?
**A.** ≤ 4.70

**Q.** What about the pKd (HLA-A*26:01; [25]) of the same sequence?
**A.** ≤ 4.70

**Q.** And the pKd (HLA-B*38:01; [25])?
**A.** ≤ 4.70

**Q.** What about the pKd (HLA-B*08:02) of the same sequence?
**A.** ≤ 4.70

**Q.** And the pKd (HLA-B*39:01; [24])?
**A.** ≤ 4.70

**Q.** What about the pKd (HLA-A*68:02 [17]) of the same sequence?
**A.** ≤ 4.70

**Q.** What about the pKd (HLA-B*08:01 [3]; [25]) of the same sequence?
**A.** ≤ 4.70

**Q.** And the pKd (HLA-B*15:09)?
**A.** 5.15

**Q.** What about the pKd (HLA-B*40:01; [24]) of the same sequence?
**A.** ≤ 4.70

**Q.** And the pKd (HLA-B*58:01; [24])?
**A.** ≤ 4.70

**Q.** And the pKd (HLA-B*07:02)?
**A.** ≤ 4.70

**Q.** And the pKd (HLA-B*57:01; [24])?
**A.** ≤ 4.70
